According to patent US20250109215A1 (Xencor, published 2025):
Positions count from the first letter of the chain named.

B1: XENP14701 (bispecific antibody)
heavy: EVQLVESGGGLVQPGGSLRLSCAASGFDFSRSWMNWVRQAPGKGLEWVSEINPDSSTINYATSVKGRFTISRDNSKNTLYLQMNSLRAEDTAVYYCARYGNWFPYWGQGTLVTVSSASTKGPSVFPLAPSSKSTSGGTAALGCLVKDYFPEPVTVSWNSGALTSGVHTFPAVLQSSGLYSLSSVVTVPSSSLGTQTYICNVNHKPSDTKVDKKVEPKSCDKTHTCPPCPAPPVAGPSVFLFPPKPKDTLMISRTPEVTCVVVDVKHEDPEVKFNWYVDGVEVHNAKTKPREEEYNSTYRVVSVLTVLHQDWLNGKEYKCKVSNKALPAPIEKTISKAKGQPREPQVYTLPPSREEMTKNQVSLTCDVSGFYPSDIAVEWESDGQPENNYKTTPPVLDSDGSFFLYSKLTVDKSRWEQGDVFSCSVMHEALHNHYTQKSLSLSPGK
scFv-Fc: not shown
light: DIVMTQSPSSLSASVGDRVTITCRASQNVDTNVAWYQQKPGQSPKALIYSASYRYSGVPDRFTGSGSGTDFTLTISSLQPEDFATYFCQQYDSYPLTFGGGTKLEIKRTVAAPSVFIFPPSDEQLKSGTASVVCLLNNFYPREAKVQWKVDNALQSGNSQESVTEQDSKDSTYSLSSTLTLSKADYEKHKVYACEVTHQGLSSPVTKSFNRGEC
notes: anti-CD38 x anti-CD3; copies: 1 + 1 + 1
B2: XENP14703 (bispecific antibody)
heavy: B1 heavy
scFv-Fc: not shown
light: B1 light with Y55K
notes: anti-CD38 x anti-CD3
B3: 13963 7G3_H1.109_L1_Fab_His (Fab, V domains shown)
VH: QVQLQQSGAEVKKPGASVKVSCKASGYTFTDYYMKWVKQSHGKSLEWMGDIIPSNGATFYNQKFKGKATLTVDRSTSTAYMELSSLRSEDTAVYYCARSHLLRASWFAYWGQGTLVTVSS
VL: DFVMTQSPDSLAVSLGERATINCKSSQSLLNSGNQKNYLTWYQQKPGQPPKLLIYWASTRESGVPDRFTGSGSGTDFTLTISSLQAEDVAVYYCQNDYSYPYTFGGGTKLEIKR
notes: also called XENP13963
B4: 13965 7G3_H1.107_L1.57_Fab_His (Fab, V domains shown)
VH: B3 VH with K38R, S40A, H41P, K43Q
VL: B3 VL with S32T
notes: also called XENP13965
B5: 13961 7G3_H1.107_L1_Fab_His (Fab, V domains shown)
VH: B3 VH with K38R, S40A, H41P, K43Q
VL: B3 VL
notes: also called XENP13961
B6: 13735 7G3_H1.86_L1_Fab_His (Fab, V domains shown)
VH: B3 VH with Q5V, K38R, S40A, H41P, K43Q, A97T
VL: B3 VL
notes: also called XENP13735; copies: 1 + 1
B7: 13743 7G3_H1.94_L1_Fab_His (Fab, V domains shown)
VH: B3 VH with Q5V, K65Q, K67R, A68V, L70M, A97T
VL: B3 VL
notes: also called XENP13743; copies: 1 + 1
B8: 13737 7G3_H1.88_L1_Fab_His (Fab, V domains shown)
VH: B3 VH with Q5V, K38R, S40A, K43Q, K65Q, K67R, A68V, L70M, A97T
VL: B3 VL
notes: also called XENP13737; copies: 1 + 1
B9: 13740 7G3_H1.91_L1_Fab_His (Fab, V domains shown)
VH: QVQLVQSGAEVKKPGASVKVSCKASGYTFTDYYMKWVRQAPGQSLEWMGDIIPSNGATFYNQKFQGRVTMTVDRSTSTAYMHLSSLRSEDTAVYYCTRSHLLRASWFAYWGQGTLVTVSS
VL: B3 VL
notes: also called XENP13740; copies: 1 + 1
B10: 13741 7G3_H1.92_L1_Fab_His (Fab, V domains shown)
VH: B9 VH with H82E, R87T
VL: B3 VL
notes: also called XENP13741; copies: 1 + 1
B11: 13738 7G3_H1.89_L1_Fab_His (Fab, V domains shown)
VH: B9 VH with M48I, H82E
VL: B3 VL
notes: also called XENP13738; copies: 1 + 1
B12: 13855 7G3_H1_L1.57_Fab_His (Fab, V domains shown)
VH: B9 VH with H82E
VL: B3 VL with S32T
notes: also called XENP13855
B13: XENP13677 (bispecific antibody)
HC 1 (Fab-Fc): QVQLVQSGAEVKKPGASVKVSCKASGYTFTSYNMHWVRQAPGQRLEWMGAIYPGNGATSYSQKFQGRVTITADTSASTAYMELSSLRSEDTAVYYCARSYYMGGDWYFDVWGAGTLVTVSSASTKGPSVFPLAPSSKSTSGGTAALGCLVKDYFPEPVTVSWNSGALTSGVHTFPAVLQSSGLYSLSSVVTVPSSSLGTQTYICNVNHKPSDTKVDKKVEPKSCDKTHTCPPCPAPPVAGPSVFLFPPKPKDTLMISRTPEVTCVVVDVKHEDPEVKFNWYVDGVEVHNAKTKPREEEYNSTYRVVSVLTVLHQDWLNGKEYKCKVSNKALPAPIEKTISKAKGQPREPQVYTLPPSREEMTKNQVSLTCDVSGFYPSDIAVEWESDGQPENNYKTTPPVLDSDGSFFLYSKLTVDKSRWEQGDVFSCSVMHEALHNHYTQKSLSLSPGK
HC 2 (scFv-Fc): not shown
light: QIVLTQSPSSLSASVGDRVTITCRASWSVSYIHWFQQKPGKSPKPLIYATSNLASGVPVRFSGSGSGTDYTLTISSLQPEDFATYYCQQWTHNPPTFGGGTKVEIKRTVAAPSVFIFPPSDEQLKSGTASVVCLLNNFYPREAKVQWKVDNALQSGNSQESVTEQDSKDSTYSLSSTLTLSKADYEKHKVYACEVTHQGLSSPVTKSFNRGEC
notes: anti-CD3 scFv H1.30_L1.47; also called Anti-CD20 (C2B8_H1.202_L1.113) x Anti-CD3 (H1.30_L1.47) Fab-scFv-Fc
B14: XENP14393 (bispecific antibody)
HC 1 (Fab-Fc): B13 HC 1 (Fab-Fc)
HC 2 (scFv-Fc): not shown
light: B13 light
notes: anti-CD3 scFv H1.90_L1.47; also called Anti-CD20 (C2B8_H1.202_L1.113) x Anti-CD3 (H1.90_L1.47) Fab-scFv-Fc
B15: XENP14392 (bispecific antibody)
HC 1 (Fab-Fc): B13 HC 1 (Fab-Fc)
HC 2 (scFv-Fc): not shown
light: B13 light
notes: anti-CD3 scFv H1.89_L1.47; also called Anti-CD20 (C2B8_H1.202_L1.113) x Anti-CD3 (H1.89_L1.47) Fab-scFv-Fc
B16: XENP14389 (bispecific antibody)
HC 1 (Fab-Fc): B13 HC 1 (Fab-Fc)
HC 2 (scFv-Fc): not shown
light: B13 light
notes: anti-CD3 scFv H1.32_L1.47; also called Anti-CD20 (C2B8_H1.202_L1.113) x Anti-CD3 (H1.32_L1.47) Fab-scFv-Fc
B17: XENP14388 (bispecific antibody)
HC 1 (Fab-Fc): B13 HC 1 (Fab-Fc)
HC 2 (scFv-Fc): not shown
light: B13 light
notes: anti-CD3 scFv H1.31_L1.47; also called Anti-CD20 (C2B8_H1.202_L1.113) x Anti-CD3 (H1.31_L1.47) Fab-scFv-Fc; CD3low
B18: XENP14390 (bispecific antibody)
HC 1 (Fab-Fc): B13 HC 1 (Fab-Fc)
HC 2 (scFv-Fc): not shown
light: B13 light
notes: anti-CD3 scFv H1.33_L1.47; also called Anti-CD20 (C2B8_H1.202_L1.113) x Anti-CD3 (H1.33_L1.47) Fab-scFv-Fc; CD3med
B19: XENP16375 (bispecific antibody)
HC 1 (Fab-Fc): B13 HC 1 (Fab-Fc)
HC 2 (scFv-Fc): not shown
light: B13 light
notes: anti-CD3 scFv H1.107_L1.47; also called Anti-CD20 (C2B8_H1.202_L1.113) x Anti-CD3 (H1.107_L1.47) Fab-scFv-Fc
B20: XENP16376 (bispecific antibody)
HC 1 (Fab-Fc): B13 HC 1 (Fab-Fc)
HC 2 (scFv-Fc): not shown
light: B13 light
notes: anti-CD3 scFv H1.108_L1.47; also called Anti-CD20 (C2B8_H1.202_L1.113) x Anti-CD3 (H1.108_L1.47) Fab-scFv-Fc
B21: XENP16374 (bispecific antibody)
HC 1 (Fab-Fc): B13 HC 1 (Fab-Fc)
HC 2 (scFv-Fc): not shown
light: B13 light
notes: anti-CD3 scFv H1.106_L1.47; also called Anti-CD20 (C2B8_H1.202_L1.113) x Anti-CD3 (H1.106_L1.47) Fab-scFv-Fc
B22: XENP16373 (bispecific antibody)
HC 1 (Fab-Fc): B13 HC 1 (Fab-Fc)
HC 2 (scFv-Fc): EVQLVESGGGLVQPGGSLRLSCAASGFTFSTYAMNWVRQAPGKGLEWVGRIRSKYNNYATYYADSVKGRFTISRDDSKNTLYLQMNSLRAEDTAVYYCVRHGNFGDQYVSWFDYWGQGTLVTVSSGKPGSGKPGSGKPGSGKPGSQAVVTQEPSLTVSPGGTVTLTCGSSTGAVTTSNYANWVQQKPGKSPRGLIGGTNKRAPGVPARFSGSLLGGKAALTISGAQPEDEADYYCALWYSNHWVFGGGTKLTVLEPKSSDKTHTCPPCPAPPVAGPSVFLFPPKPKDTLMISRTPEVTCVVVDVKHEDPEVKFNWYVDGVEVHNAKTKPREEQYNSTYRVVSVLTVLHQDWLNGKEYKCKVSNKALPAPIEKTISKAKGQPREPQVYTLPPSREQMTKNQVKLTCLVKGFYPSDIAVEWESNGQPENNYKTTPPVLDSDGSFFLYSKLTVDKSRWQQGNVFSCSVMHEALHNHYTQKSLSLSPGK
light: B13 light
notes: anti-CD3 scFv H1.105_L1.47; also called Anti-CD20 (C2B8_H1.202_L1.113) x Anti-CD3 (H1.105_L1.47) Fab-scFv-Fc

Each binder was assayed against T1, CD3 (Homo sapiens (Human), UniProt P07766 23-126; P04234 22-105) (assay: Biacore).
T1 construct: not shown: The Fc carrier of the Sino Biological CD3 delta-epsilon-Fc heterodimer; copies: 1 + 1
T1 sequence (P07766 23-126 limits assumed, chain 1 of 2): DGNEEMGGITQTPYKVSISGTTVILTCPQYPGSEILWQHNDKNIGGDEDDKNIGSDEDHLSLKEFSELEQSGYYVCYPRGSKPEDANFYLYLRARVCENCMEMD
T1 sequence (P04234 22-105 limits assumed, chain 2 of 2): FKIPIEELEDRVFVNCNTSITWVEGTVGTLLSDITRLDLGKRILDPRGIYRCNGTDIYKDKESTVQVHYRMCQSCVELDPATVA

Binder	Fold Decrease in CD3 binding from H1.30_L1.47 [fold]
B1	330
B2	330

These binders were tested against T2, human CD123 (human, UniProt P26951 19-305, limits assumed) (assay: Biacore, Fab-His on CD123 (Example 3; the sheet names no assay)).
T2 construct: Construct on the chip is not described; also called CD123 chip
T2 sequence (looked up): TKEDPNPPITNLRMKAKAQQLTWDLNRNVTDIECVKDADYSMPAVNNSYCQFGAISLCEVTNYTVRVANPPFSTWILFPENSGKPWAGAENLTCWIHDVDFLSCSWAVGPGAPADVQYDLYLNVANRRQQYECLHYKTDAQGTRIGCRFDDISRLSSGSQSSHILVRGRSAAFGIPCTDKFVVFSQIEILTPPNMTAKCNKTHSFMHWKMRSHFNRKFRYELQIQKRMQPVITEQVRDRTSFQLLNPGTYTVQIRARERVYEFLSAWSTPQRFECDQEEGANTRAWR

Binder	Ka [M⁻¹]	Kd [nM]	koff [s⁻¹]	kon [M⁻¹ s⁻¹]
B3	1.35e+10	0.0742	5.53e-05	745000
B4	1.6e+10	0.0624	3.82e-05	612000
B5	6.79e+09	0.147	8.84e-05	600000

Each binder was assayed against T1, CD3 (assay: Biacore; column head 'KD (nM)*', anti-CD3 scFv-Fc H1.31_L1.47).

Binder	Kd [nM]
B1	1640
B2	1640

Each binder was assayed against T2, human CD123 (assay: off-rate screen of Fab-His on a Biacore CD123 chip (Example 3), relative to 7G3 H1L1 Fab).

Binder	Fold improvement in off-rate vs. H1L1 [fold]
B6	4.61
B7	0.65
B8	0.96
B9	1.04
B10	1.89
B11	1.29
B12	0.84

These binders were tested against T3, human CD3 (human, UniProt P07766 23-126; P04234 22-105) (assay: SPR; human CD3-Fc (printed 'CD388-Fc', Sino Biological) covalently bound to the chip; test article passed over at 3.125, 12.5, 50 and 200 nM).
T3 construct: The legend says only human CD3
T3 sequence (P07766 23-126, chain 1 of 2): as the sequence (P07766 23-126 limits assumed, chain 1 of 2) above
T3 sequence (P04234 22-105, chain 2 of 2): as the sequence (P04234 22-105 limits assumed, chain 2 of 2) above

Binder	Kd [nM]
B13	4.9
B14	120
B15	120
B16	44
B17	~2000
B18	110

What follows are binders tested against T3, human CD3 (assay: SPR; human CD3-Fc (printed 'CD388-Fc', Sino Biological) covalently bound to the chip; test article passed over at 31.25, 125, 500 and 2000 nM).

Binder	Kd [nM]
B19	1000
B20	1100
B21	1300
B17	1200
B18	220
B22	4000

What follows are binders tested against T4, cyno CD3 (cynomolgus monkey, UniProt Q95LI5 22-117; Q95LI8 22-105) (assay: SPR; cynomolgus monkey CD3-Fc (printed 'CD388-Fc', Sino Biological) covalently bound to the chip; test article passed over at 3.125, 12.5, 50 and 200 nM).
T4 construct: The legend says only cyno CD3; also called cynomolgus monkey CD3
T4 sequence (Q95LI5 22-117, form in doubt, chain 1 of 2): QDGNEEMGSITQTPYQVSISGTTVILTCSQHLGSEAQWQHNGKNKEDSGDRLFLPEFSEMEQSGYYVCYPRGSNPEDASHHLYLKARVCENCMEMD
T4 sequence (Q95LI8 22-105, form in doubt, chain 2 of 2): as the sequence (P04234 22-105 limits assumed, chain 2 of 2) above, with I5V, N15K, I20V, S32T, D33N, I34N, T64A, S74N, V83L counted along it

Binder	Kd [nM]
B13	5.6
B14	120
B15	110
B16	45
B17	~1000
B18	100

What follows are binders tested against T4, cyno CD3 (assay: SPR; cynomolgus monkey CD3-Fc (printed 'CD388-Fc', Sino Biological) covalently bound to the chip; test article passed over at 31.25, 125, 500 and 2000 nM).

Binder	Kd [nM]
B19	880
B20	860
B21	1100
B17	1200
B18	160
B22	420
